Earlier results as cited in patent publication US20050181456A1, “Methods for determining the amount of peptide YY in blood” (Nastech Pharmaceutical Company Inc., priority 2004, published 2005).

Biological target: T1, Y2 receptor (Homo sapiens, UniProt P49146)
T1 sequence (P49146 1-381): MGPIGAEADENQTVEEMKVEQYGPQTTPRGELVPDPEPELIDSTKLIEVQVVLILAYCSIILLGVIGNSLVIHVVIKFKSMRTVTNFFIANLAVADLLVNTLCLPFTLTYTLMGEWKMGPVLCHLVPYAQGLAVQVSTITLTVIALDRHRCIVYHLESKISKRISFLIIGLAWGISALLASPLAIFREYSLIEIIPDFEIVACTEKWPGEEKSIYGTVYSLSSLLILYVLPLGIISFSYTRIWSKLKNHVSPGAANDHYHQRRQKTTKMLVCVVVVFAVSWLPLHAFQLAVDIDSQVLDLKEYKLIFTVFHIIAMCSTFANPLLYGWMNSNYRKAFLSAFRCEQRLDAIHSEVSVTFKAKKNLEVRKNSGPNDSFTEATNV
Settings: cited from earlier work

For “PYY fragment having only residues 22-36: PYY fragment having only residues 22-36 (ASLRHYLNLVTRQRY; listed as Homo sapiens)”, which “binding to the Y2 receptor” value is on record?
The value was “will still bind”.
